In patent US20180030151A1 (MOGAM INSTITUTE FOR BIOMEDICAL RESEARCH, published 2018):

B1: clone A71 (antibody, V domains shown)
VH: EVQLVESGGGLVKPGGSLRLSCAASGFTFSSYAMNWVRQAPGKGLEWVSTITTGGSYTYYADSVHGRFTISRDNAKNSLYLQMNSLRAEDTAVYYCARQDGNFLMDYWGQGTLVTVSS
VL: DVVMTQTPLSLPVTLGQPASISCKSSQSLLDTDGKTYLNWLQQRPGQSPKRLIYLVSKLDSGVPDRFTGSGSGTDFTLKISRVEAEDVGVYYCWQGTHFPFTFGQGTKVEIKR
notes: Fab from phage library at selection; human IgG4/kappa IgG as purified
B2: clone A74 (antibody, V domains shown)
VH: EVQLVESGGGLVKPGGSLRLSCAASGFTFSSYAMHWVRQAPGKGLEWVSTITTGGSYTYYADSVQGRFTISRDNAKNSLYLQMNSLRAEDTAVYYCARQDGNFLMDYWGQGTLVTVSS
VL: DVVMTQTPLSLPVTLGQPASISCKSSQSLLDIDGKTYLNWLQQRPGQSPKRLIYLVSKLDSGVPDRFTGSGSGTDFTLKISRVEAEDVGVYYCWQGTHFPFTFGQGTKVEIKR
notes: as for B1

Molecular target: T1, recombinant human TFPI (tissue factor pathway inhibitor) (human, UniProt P10646 29-304)
T1 construct: Biotin-conjugated in the yeast FACS; also called hTFPI; TFPI antigen
Assay: ELISA of phage-library Fab supernatants on TFPI-coated plate
Description: Single colonies were collected from the finally amplified library, and then cultured in 1.5 mL of SB/carbenicillin at 37° C. at 220 rpm until an OD600 of about 0.8-1.0 was reached, followed by incubation with 1 mM IPTG at 30° C. at 200 rpm for 12 hours. Next, the cells were centrifuged at 5500 rpm for 5 minutes, and the supernatant was added to a TFPI antigen-coated ELISA plate, incubated at room temperature for 2 hours, and then washed four times with PBST (1×PBS, 0.05% tween 20). Next, a 1:5000 dilution of an HRP/anti-hFab-HRP conjugate (CAT. No. A0293, Sigma) with 1% BSA/1×PBS was added to the cells, after which the cells were incubated at room temperature for 1 hour and washed four times with PBST (1×PBS, 0.05% tween 20). Then, the cells treated with a TMB solution for 5-10 minutes, and a TMB stop solution was added to the cells. Next, the absorbance at a wavelength of 450 nm was measured using the TECAN sunrise, and clones having high O. D values were selected as individual clones.

| Binder | binding result |
| --- | --- |
| B1 | binds |
| B2 | binds |
